Data: publication doi:10.1101/2023.03.10.532066

Assays:
GLK2 [1] = molecular target: T1, GLK2 (Arabidopsis thaliana, UniProt Q9FFH0 1-386); experiment: EMSA
T1 sequence: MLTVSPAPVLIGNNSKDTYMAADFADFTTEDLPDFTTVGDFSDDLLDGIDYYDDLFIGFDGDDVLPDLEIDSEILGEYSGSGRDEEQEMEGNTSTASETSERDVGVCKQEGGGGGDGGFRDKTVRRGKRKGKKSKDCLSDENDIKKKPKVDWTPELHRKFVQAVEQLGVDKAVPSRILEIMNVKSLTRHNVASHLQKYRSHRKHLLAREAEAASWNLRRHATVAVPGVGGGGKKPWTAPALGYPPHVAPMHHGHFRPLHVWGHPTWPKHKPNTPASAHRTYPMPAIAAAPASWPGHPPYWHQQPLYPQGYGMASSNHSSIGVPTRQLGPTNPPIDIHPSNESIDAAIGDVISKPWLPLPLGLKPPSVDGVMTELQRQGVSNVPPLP

GLK2 [2] = molecular target: T1, GLK2; experiment: competition

B1: TTG1 probe (pTTG1-A-EMSA) (dsDNA)
DNA 1: TCTTTTTTGTCTTCTTATGTGATATCAAATTTTATGATCT
DNA 2: AGATCATAAAATTTGATATCACATAAGAAGACAAAAAAGA
Does B1 bind (GLK2 [1])?
Result: binds

B2: pTTG1m (mpTTG1-A-EMSA) (dsDNA)
DNA 1: TCTTTTTTGTCTTCTTATGTAAAAAAAAATTTTATGATCT
DNA 2: AGATCATAAAATTTTTTTTTACATAAGAAGACAAAAAAGA
Does B2 bind (GLK2 [1])?
Result: no binding

B3: pDFR-p1m (mpDFR-D-EMSA) (dsDNA)
DNA 1: ATACCAACACTAAAAAAAAAAAAAAAAAAACATAGAAGAAGAGAGCCAC
DNA 2: GTGGCTCTCTTCTTCTATGTTTTTTTTTTTTTTTTTTTAGTGTTGGTAT
Does B3 bind (GLK2 [2])?
Result: no binding
